Here are results for 1 molecule from article doi:10.1101/2022.07.18.499583.

In this data set the target is NSP1 (SARS-CoV-2, UniProt P0DTD1 1-180). Description: BLI. Background: In BLI a coated tip is dipped into the sample, and binding shifts an interference pattern.

Usually Kd stands for the concentration at which binding is half-saturated. High values mean lower affinity, low ones higher affinity. AACCAACUUUCGAUCUCUUGUAGAUCUGUUCU (structured_RNA) [SL2 (unmodified)] displayed a Kd of 300 ± 54 nM.
